In general, Kd refers to the free concentration of one partner at which half of the binding sites on the other are occupied at equilibrium, for simple one-to-one binding. A lower Kd goes with a tighter complex.

This experiment has as its target preformed E3mUU–UFC1–UFM1 complex (UniProt O94874). Briefly: ITC; MicroCal PEAQ-ITC, 25 °C, 25 mM HEPES pH 7.5, 200 mM NaCl, 0.44 mM TCEP; 13 injections (19 for UFBP1 UFIM–UFM1). (In general: Isothermal titration calorimetry measures the heat released or taken up as one component is titrated into another.)

For “CDK5RAP3 (from UniProt Q96JB5 1-506) (natural protein)”, the Kd was 500 nM.
